Data published in PMC7795492, “Protein Sensing Device with Multi-Recognition Ability Composed of Self-Organized Glycopeptide Bundle” (International Journal of Molecular Sciences, 2020).
“Also recorded” adds a separate entry of the source. Like-named read-outs stand apart in the source and are kept apart here.

What was measured:
[1] = test system: PNA-induced glycopeptide bundle in DPPC bilayer membrane; assay: QCM binding isotherm, PNA-induced glycopeptide bundle; conditions: QCM method
Text: (§1) We determined binding amounts of proteins to the induced glycopeptide bundles by QCM measurements. […] The molecular weights of PNA and ConA were 98,000 [27] and […] [33], respectively, assuming that they formed tetramers.
We attempted quantitative analysis of the binding isotherms obtained from the QCM and electrochemical measurements. The curves in Figure 5 and Figure 7 were obtained by curve-fitting the experimental values using the Langmuir binding isotherm. It can be seen that both curves are in good agreement with the experimental values. […] In the electrochemical measurement, the value of ΔI corresponds to the amount of the closed channel in the formed complex between the protein and glycopeptide bundle that acted as an ion channel. ΔImax corresponds to the total channel amount. Therefore, we used ΔI and ΔImax as the binding amount and saturated binding amount, respectively, for the Langmuir binding isotherm.
(§2) For the binding isotherm parameters obtained by the QCM measurements, the saturated binding amount, Wmax, for the protein used to induce the glycopeptide bundle was slightly larger, but a systematic relationship could not be seen in the binding constants, K. However, in the parameters obtained from the electrochemical method, the binding constant, K, to the target protein used to induce the glycopeptide bundle acting as a channel, was higher than that of other proteins, and the ΔImax value corresponding to the saturated binding amount was also remarkably larger. In addition, the selective detection of the target protein to the DPPC bilayer membrane with the target protein-induced glycopeptide bundle was evaluated from the ratio to the saturated binding amounts of other proteins. For example, the value of the selectivity of PNA to ConA, of 1.34, in the QCM method of the PNA-induced sensing membrane was obtained from Wmax, PNA/Wmax, ConA.
We previously reported that heating a vesicle containing a peptide above its gel–liquid crystal transition temperature, Tc, increases the fluidity of the lipid bilayer membrane and allows the peptide to easily diffuse laterally through the membrane. At this time, if a protein that specifically interacts with the sugar chains at the terminal of the glycopeptides is present, the glycopeptides are re-arranged in the membrane, and form specific binding site to the target protein on the glycopeptide bundle. The target protein was added to aqueous solution containing DPPC vesicle with glycopeptides and a spacer peptide in the bilayer membrane. The molar ratio of the added protein to the glycopeptides was 2. The Tc of DPPC is 41 °C [41]. The vesicle solution was incubated at 60 °C above Tc for 15 min to form a glycopeptide bundle. […]

[2] = test system: ConA-induced glycopeptide bundle in DPPC bilayer membrane; assay: QCM binding isotherm, ConA-induced glycopeptide bundle; conditions: QCM method, Langmuir fit, 25 °C
Text: as §1
We attempted quantitative analysis of the binding isotherms obtained from the QCM and electrochemical measurements. The curves in Figure 5 and Figure 7 were obtained by curve-fitting the experimental values using the Langmuir binding isotherm. It can be seen that both curves are in good agreement with the experimental values. […]
as §2, with “For example, the value of the selectivity of PNA to ConA, of 1.34, in the QCM method of the PNA-induced sensing membrane was obtained from Wmax, PNA/Wmax, ConA.” left out

[3] = test system: PNA-induced glycopeptide bundle in DPPC bilayer membrane; assay type: binding; conditions: Electrochemical method
Text: The response current waves were very similar to those derived according to Equation (7) based on the equivalent circuit in Figure A2. The equivalent circuit was a parallel circuit consisting of a capacitor (DPPC bilayer membrane; Cmemb), a resistor (glycopeptide bundle not bound to the target protein as an open channel; Ropen), the serial circuit of a capacitor (bound target protein on glycopeptide bundle; Cprotein), and a resistor (target protein bound to the glycopeptide bundle as a closed channel; Rclose). First, we verified whether the electrochemical properties of the DPPC bilayer membrane with a target protein-induced glycopeptide bundle could be expressed by the proposed equivalent circuit. […] The sensing membrane was used containing the PNA-induced glycopeptide bundle, and the added protein was PNA. In the simulation, the resistances, Ropen = 6.00 × 10^4 Ω and Rclose = 1.73 × 10^4 Ω, and capacitances, Cmemb = 1.00 × 10^−6 F and Cprotein = 3.00 × 10^−6 F, were held constant. Furthermore, x (=ΔI/ΔImax) was calculated from the ratio of the current changes, ΔI (Figure A4), between before and after the protein was added at peak voltage applied, and the saturated current changes, ΔImax (Table 2); this is described below.
(§3) We attempted to detect the protein using the sensing membrane using the electrochemical method. From the simulation, the value of the increase in the current before and after protein addition at the peak voltage, ΔI, was proportional to the fraction of the closed channel that is protein bound glycopeptide bundle (Figure A4).
We attempted quantitative analysis of the binding isotherms obtained from the QCM and electrochemical measurements. The curves in Figure 5 and Figure 7 were obtained by curve-fitting the experimental values using the Langmuir binding isotherm. […] In the electrochemical measurement, the value of ΔI corresponds to the amount of the closed channel in the formed complex between the protein and glycopeptide bundle that acted as an ion channel. ΔImax corresponds to the total channel amount. Therefore, we used ΔI and ΔImax as the binding amount and saturated binding amount, respectively, for the Langmuir binding isotherm [36].

[4] = test system: ConA-induced glycopeptide bundle in DPPC bilayer membrane; assay: Electrochemical detection (peak current response, channel blockage), ConA-induced glycopeptide bundle; assay type: binding; conditions: Electrochemical method, Langmuir fit, ±5 mV triangular voltage, 11.24 Hz, 0.1 M HEPES-Tris pH 7.4, 0.1 M KCl
Text: as §3
The curves in Figure 5 and Figure 7 were obtained by curve-fitting the experimental values using the Langmuir binding isotherm. […] In the electrochemical measurement, the value of ΔI corresponds to the amount of the closed channel in the formed complex between the protein and glycopeptide bundle that acted as an ion channel. ΔImax corresponds to the total channel amount. Therefore, we used ΔI and ΔImax as the binding amount and saturated binding amount, respectively, for the Langmuir binding isotherm [36].
At this time, if a protein that specifically interacts with the sugar chains at the terminal of the glycopeptides is present, the glycopeptides are re-arranged in the membrane, and form specific binding site to the target protein on the glycopeptide bundle. The target protein was added to aqueous solution containing DPPC vesicle with glycopeptides and a spacer peptide in the bilayer membrane. The molar ratio of the added protein to the glycopeptides was 2. […] The vesicle solution was incubated at 60 °C above Tc for 15 min to form a glycopeptide bundle. […]

[5] = cited from earlier work
Text: This implies that the proteins with the same sugar binding sites can be selectively recognized if their 3D-structures are different. […] The PNA-induced glycopeptide bundle has a spatial arrangement of galactose corresponded to its binding sites in PNA. Two ... || We used PNA (Wako Pure Chemical Industrials, Ltd., Osaka, Japan) and ConA (CALBIOCHEM, San Diego, CA, USA) as the target proteins.

[6] = PNA-induced glycopeptide bundle in DPPC bilayer, Langmuir fit, 25 °C
[7] = PNA-induced bundle, ratio of ΔImax
[8] = PNA-induced glycopeptide bundle in DPPC bilayer, Langmuir fit, ±5 mV triangular voltage, 11.24 Hz, 0.1 M HEPES-Tris pH 7.4, 0.1 M KCl

B1: PNA: peanut lectin with specific binding site for galactose (protein, UniProt P02872 24-273, looked up)
Galactose-binding lectin: AETVSFNFNSFSEGNPAINFQGDVTVLSNGNIQLTNLNKVNSVGRVLYAMPVRIWSSATGNVASFLTSFSFEMKDIKDYDPADGIIFFIAPEDTQIPAGSIGGGTLGVSDTKGAGHFVGVEFDTYSNSEYNDPPTDHVGIDVNSVDSVKTVPWNSVSGAVVKVTVIYDSSTKTLSVAVTNDNGDITTIAQVVDLKAKLPERVKFGFSASGSLGGRQIHLIRSWSFTSTLITTTRRSIDNNEKKIMNMASA
Selectivity of PNA to BSA ([1]; PNA-induced bundle, ratio of Wmax): 2.47
Binding preference in QCM (in words) ([1]; PNA-induced glycopeptide bundle): preferentially bound
Binding constant, K [1, 6]: 8.2e+08 M⁻¹
Saturated binding amount, Wmax [1, 6]: 0.47 ng
Binding constant, K [2]: 9.5e+08 M⁻¹
Saturated binding amount, Wmax [2]: 0.21 ng
Selectivity of PNA to BSA [3, 7]: 17.8
Selectivity of PNA to ConA [3, 7]: 9.53
Binding constant, K [3, 8]: 2.1e+09 M⁻¹
Saturated current change, ΔImax [3, 8]: 0.41 μA
Current response / recognition (in words) ([3]; PNA-induced sensing membrane): specific response; also recorded: very large current responses
Binding constant, K [4]: 1.1e+09 M⁻¹
Saturated current change, ΔImax [4]: 0.035 μA
Sugar binding specificity [5]: specific binding sites for galactose
